Source: patent US20120172293A1 (Takeda / Millennium, published 2012)
Starred links: 1 amine or outer side, 2 acyl side, 3 side chain; linkers in the order of their positions; H or OH if unused. Non-standard residues stand in square brackets, D forms with d. *: point of attachment. Asn(Me) = N-omega-methylasparagine, CNC(=O)C[C@H](N[*:1])C(=O)[*:2]; 4‑guanidinomethylbenzoyl = N=C(N)NCc1ccc(C(=O)*)cc1; Phe(4-NH2) = Nc1ccc(C[C@H](N)C(=O)O)cc1; Phe(4-F) = N[C@@H](Cc1ccc(F)cc1)C(=O)O; 1Nal = N[C@@H](Cc1cccc2ccccc12)C(=O)O; Cyclohexanecarbonyl = O=C(C1CCCCC1)*; Arg(Me) = CNC(=N)NCCC[C@H](N)C(=O)O; Ala(cPr) = N[C@@H](CC1CC1)C(=O)O; tBuAla = CC(C)(C)C[C@H](N)C(=O)O; 4Pal = N[C@@H](Cc1ccncc1)C(=O)O; Cha = N[C@@H](CC1CCCCC1)C(=O)O; Suc = O=C(CCC(=O)[*:2])[*:1]; Isobutyryl = CC(C)C(=O)*; Nle = CCCC[C@H](N)C(=O)O; Abu = CC[C@H](N)C(=O)O; Dap = NC[C@H](N)C(=O)O; Aib = CC(C)(N)C(=O)O; Bz = O=C(c1ccccc1)*; Ahx = NCCCCCC(=O)O

Legend:
[1] = target: human Y2 receptor (human) (UniProt P49146); assay: cell-based or functional assay
Sequence of human Y2 receptor (human) (P49146 whole entry): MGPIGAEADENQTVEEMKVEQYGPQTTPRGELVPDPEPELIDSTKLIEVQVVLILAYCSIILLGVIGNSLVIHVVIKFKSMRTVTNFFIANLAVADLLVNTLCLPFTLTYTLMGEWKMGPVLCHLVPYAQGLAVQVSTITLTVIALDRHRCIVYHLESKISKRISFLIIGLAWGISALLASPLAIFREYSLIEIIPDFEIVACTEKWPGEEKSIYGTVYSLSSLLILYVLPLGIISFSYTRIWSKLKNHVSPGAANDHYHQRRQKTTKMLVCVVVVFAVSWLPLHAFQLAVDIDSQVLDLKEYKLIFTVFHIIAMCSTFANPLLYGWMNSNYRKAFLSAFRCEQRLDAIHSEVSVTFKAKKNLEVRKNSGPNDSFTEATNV

[2] = target: human Y2 receptor (human) (UniProt P49146); assay: RBA: [125I]-PYY displacement, hY2R/CHO membranes

| GBA EC50 Ratio (vs PYY(3-36)), [35S]GTPγS [1] | IC50 Ratio (vs PYY(3-36)) [2] | Binder |
| --- | --- | --- |
| 1.2 | 1.7 | Suc-[Ahx]S[dP]RH[Cha][tBuAla]NK[Aib]TRQR[Cha]-NH2 (SMILES C[C@@H](O)[C@H](NC(=O)C(C)(C)NC(=O)[C@H](CCCCN)NC(=O)[C@H](CC(N)=O)NC(=O)[C@H](CC(C)(C)C)NC(=O)[C@H](CC1CCCCC1)NC(=O)[C@H](Cc1c[nH]cn1)NC(=O)[C@H](CCCNC(=N)N)NC(=O)[C@H]1CCCN1C(=O)[C@H](CO)NC(=O)CCCCCNC(=O)CCC(=O)O)C(=O)N[C@@H](CCCNC(=N)N)C(=O)N[C@@H](CCC(N)=O)C(=O)N[C@@H](CCCNC(=N)N)C(=O)N[C@@H](CC1CCCCC1)C(N)=O) [3-Carboxypropionyl-[Acp22, D-Pro24, Cha27,36, Leu(Me)28, Lys30, Aib31]-PYY(22-36)] |
| 33 | 50 | Cyclohexanecarbonyl-R[Nle][Cha][Cha]NL[Aib]TRQR[Cha]-NH2 (SMILES CCCC[C@H](NC(=O)[C@H](CCCNC(=N)N)NC(=O)C1CCCCC1)C(=O)N[C@@H](CC1CCCCC1)C(=O)N[C@@H](CC1CCCCC1)C(=O)N[C@@H](CC(N)=O)C(=O)N[C@@H](CC(C)C)C(=O)NC(C)(C)C(=O)N[C@H](C(=O)N[C@@H](CCCNC(=N)N)C(=O)N[C@@H](CCC(N)=O)C(=O)N[C@@H](CCCNC(=N)N)C(=O)N[C@@H](CC1CCCCC1)C(N)=O)[C@@H](C)O) [Cyclohexanecarbonyl-[Nle26, Cha27,28,36, Aib31]-PYY(25-36)] |
| 28 | 37 | Bz-RH[Cha]INL[Dap]TRQR[Cha]-NH2 (SMILES CC[C@H](C)[C@H](NC(=O)[C@H](CC1CCCCC1)NC(=O)[C@H](Cc1c[nH]cn1)NC(=O)[C@H](CCCNC(=N)N)NC(=O)c1ccccc1)C(=O)N[C@@H](CC(N)=O)C(=O)N[C@@H](CC(C)C)C(=O)N[C@@H](CN)C(=O)N[C@H](C(=O)N[C@@H](CCCNC(=N)N)C(=O)N[C@@H](CCC(N)=O)C(=O)N[C@@H](CCCNC(=N)N)C(=O)N[C@@H](CC1CCCCC1)C(N)=O)[C@@H](C)O) [Benzoyl-[Cha27,36, Ile28, Dap31]-PYY(25-36)] |
| 4.5 | 7.2 | {4‑guanidinomethylbenzoyl}-[Nle]H[Cha][Cha]NR[Cha]TRQR[Cha]-NH2 (SMILES CCCC[C@H](NC(=O)c1ccc(CNC(=N)N)cc1)C(=O)N[C@@H](Cc1c[nH]cn1)C(=O)N[C@@H](CC1CCCCC1)C(=O)N[C@@H](CC1CCCCC1)C(=O)N[C@@H](CC(N)=O)C(=O)N[C@@H](CCCNC(=N)N)C(=O)N[C@@H](CC1CCCCC1)C(=O)N[C@H](C(=O)N[C@@H](CCCNC(=N)N)C(=O)N[C@@H](CCC(N)=O)C(=O)N[C@@H](CCCNC(=N)N)C(=O)N[C@@H](CC1CCCCC1)C(N)=O)[C@@H](C)O) [4-Guanidinomethylbenzoyl-[Nle25, Cha27,28,31,36, Arg30]-PYY(25-36)] |
| 1.1 | 1.7 | Ac-[Ahx]E[dP]RH[Cha][Cha]NK[Aib]TRQR[Cha]-NH2 (SMILES CC(=O)NCCCCCC(=O)N[C@@H](CCC(=O)O)C(=O)N1CCC[C@@H]1C(=O)N[C@@H](CCCNC(=N)N)C(=O)N[C@@H](Cc1c[nH]cn1)C(=O)N[C@@H](CC1CCCCC1)C(=O)N[C@@H](CC1CCCCC1)C(=O)N[C@@H](CC(N)=O)C(=O)N[C@@H](CCCCN)C(=O)NC(C)(C)C(=O)N[C@H](C(=O)N[C@@H](CCCNC(=N)N)C(=O)N[C@@H](CCC(N)=O)C(=O)N[C@@H](CCCNC(=N)N)C(=O)N[C@@H](CC1CCCCC1)C(N)=O)[C@@H](C)O) [Ac-[Acp22, Glu23, D-Pro24, Cha27,28,36, Lys30, Aib31]-PYY(22-36)] |
| 6.6 | 12 | Bz-RH[Cha]IN[Phe(4-NH2)]ITRQR[Cha]-NH2 (SMILES CC[C@H](C)[C@H](NC(=O)[C@H](CC1CCCCC1)NC(=O)[C@H](Cc1c[nH]cn1)NC(=O)[C@H](CCCNC(=N)N)NC(=O)c1ccccc1)C(=O)N[C@@H](CC(N)=O)C(=O)N[C@@H](Cc1ccc(N)cc1)C(=O)N[C@H](C(=O)N[C@H](C(=O)N[C@@H](CCCNC(=N)N)C(=O)N[C@@H](CCC(N)=O)C(=O)N[C@@H](CCCNC(=N)N)C(=O)N[C@@H](CC1CCCCC1)C(N)=O)[C@@H](C)O)[C@@H](C)CC) [Benzoyl-[Cha27,36, Ile28,31, Phe(4NH2)30]-PYY(25-36)] |
| 23 | 15 | Cyclohexanecarbonyl-RH[Cha][Ala(cPr)]NL[Aib]TRQR[Cha]-NH2 (SMILES CC(C)C[C@H](NC(=O)[C@H](CC(N)=O)NC(=O)[C@H](CC1CC1)NC(=O)[C@H](CC1CCCCC1)NC(=O)[C@H](Cc1c[nH]cn1)NC(=O)[C@H](CCCNC(=N)N)NC(=O)C1CCCCC1)C(=O)NC(C)(C)C(=O)N[C@H](C(=O)N[C@@H](CCCNC(=N)N)C(=O)N[C@@H](CCC(N)=O)C(=O)N[C@@H](CCCNC(=N)N)C(=O)N[C@@H](CC1CCCCC1)C(N)=O)[C@@H](C)O) [Cyclohexanecarbonyl-[Cha27,36, Ala(cPr)28, Aib31]-PYY(25-36)] |
| 8.5 | 7.6 | Bz-RH[Cha]INL[4Pal]TRQR[Cha]-NH2 (SMILES CC[C@H](C)[C@H](NC(=O)[C@H](CC1CCCCC1)NC(=O)[C@H](Cc1c[nH]cn1)NC(=O)[C@H](CCCNC(=N)N)NC(=O)c1ccccc1)C(=O)N[C@@H](CC(N)=O)C(=O)N[C@@H](CC(C)C)C(=O)N[C@@H](Cc1ccncc1)C(=O)N[C@H](C(=O)N[C@@H](CCCNC(=N)N)C(=O)N[C@@H](CCC(N)=O)C(=O)N[C@@H](CCCNC(=N)N)C(=O)N[C@@H](CC1CCCCC1)C(N)=O)[C@@H](C)O) [Benzoyl-[Cha27,36, Ile28, Pya(4)31]-PYY(25-36)] |
| 2.4 | 3.3 | Piperidinocarbonyl-E[dP]R[4Pal][Cha][Aib]NK[Aib]TRQR[Cha]-NH2 [Piperidinocarbonyl-[Glu23, D-Pro24, Pya(4)26, Cha27,36, Aib28,31, Lys30]-PYY(23-36)] |
| 5.4 | 5 | Bz-RH[Cha]INL[Phe(4-NH2)]TRQR[Cha]-NH2 (SMILES CC[C@H](C)[C@H](NC(=O)[C@H](CC1CCCCC1)NC(=O)[C@H](Cc1c[nH]cn1)NC(=O)[C@H](CCCNC(=N)N)NC(=O)c1ccccc1)C(=O)N[C@@H](CC(N)=O)C(=O)N[C@@H](CC(C)C)C(=O)N[C@@H](Cc1ccc(N)cc1)C(=O)N[C@H](C(=O)N[C@@H](CCCNC(=N)N)C(=O)N[C@@H](CCC(N)=O)C(=O)N[C@@H](CCCNC(=N)N)C(=O)N[C@@H](CC1CCCCC1)C(N)=O)[C@@H](C)O) [Benzoyl-[Cha27,36, Ile28, Phe(4NH2)31]-PYY(25-36)] |
| 25 | 34 | Bz-RH[Cha][1Nal]NL[Aib]TRQR[Cha]-NH2 (SMILES CC(C)C[C@H](NC(=O)[C@H](CC(N)=O)NC(=O)[C@H](Cc1cccc2ccccc12)NC(=O)[C@H](CC1CCCCC1)NC(=O)[C@H](Cc1c[nH]cn1)NC(=O)[C@H](CCCNC(=N)N)NC(=O)c1ccccc1)C(=O)NC(C)(C)C(=O)N[C@H](C(=O)N[C@@H](CCCNC(=N)N)C(=O)N[C@@H](CCC(N)=O)C(=O)N[C@@H](CCCNC(=N)N)C(=O)N[C@@H](CC1CCCCC1)C(N)=O)[C@@H](C)O) [Benzoyl-[Cha27,36, Nal(1)28, Aib31]-PYY(25-36)] |
| 18 | 28 | Bz-RH[Cha][Cha]NL[Aib]TRQR[Cha]-NH2 (SMILES CC(C)C[C@H](NC(=O)[C@H](CC(N)=O)NC(=O)[C@H](CC1CCCCC1)NC(=O)[C@H](CC1CCCCC1)NC(=O)[C@H](Cc1c[nH]cn1)NC(=O)[C@H](CCCNC(=N)N)NC(=O)c1ccccc1)C(=O)NC(C)(C)C(=O)N[C@H](C(=O)N[C@@H](CCCNC(=N)N)C(=O)N[C@@H](CCC(N)=O)C(=O)N[C@@H](CCCNC(=N)N)C(=O)N[C@@H](CC1CCCCC1)C(N)=O)[C@@H](C)O) [Benzoyl-[Cha27,28,36, Aib31]-PYY(25-36)] |
| 15 | 18 | Bz-RH[Cha]INL[Arg(Me)]TRQR[Cha]-NH2 (SMILES CC[C@H](C)[C@H](NC(=O)[C@H](CC1CCCCC1)NC(=O)[C@H](Cc1c[nH]cn1)NC(=O)[C@H](CCCNC(=N)N)NC(=O)c1ccccc1)C(=O)N[C@@H](CC(N)=O)C(=O)N[C@@H](CC(C)C)C(=O)N[C@@H](CCCNC(=N)NC)C(=O)N[C@H](C(=O)N[C@@H](CCCNC(=N)N)C(=O)N[C@@H](CCC(N)=O)C(=O)N[C@@H](CCCNC(=N)N)C(=O)N[C@@H](CC1CCCCC1)C(N)=O)[C@@H](C)O) [Benzoyl-[Cha27,36, Ile28, Arg(Me)31]-PYY(25-36)] |
| 37 | 76 | Cyclohexanecarbonyl-RH[Cha]I[Asn(Me)]LITRQR[Cha]-NH2 (SMILES CC[C@H](C)[C@H](NC(=O)[C@H](CC1CCCCC1)NC(=O)[C@H](Cc1c[nH]cn1)NC(=O)[C@H](CCCNC(=N)N)NC(=O)C1CCCCC1)C(=O)N[C@@H](CC(=O)NC)C(=O)N[C@@H](CC(C)C)C(=O)N[C@H](C(=O)N[C@H](C(=O)N[C@@H](CCCNC(=N)N)C(=O)N[C@@H](CCC(N)=O)C(=O)N[C@@H](CCCNC(=N)N)C(=O)N[C@@H](CC1CCCCC1)C(N)=O)[C@@H](C)O)[C@@H](C)CC) [Cyclohexanecarbonyl-[Cha27,36, Ile28,31, Asn(Me)29]-PYY(25-36)] |
| 20 | 23 | Isobutyryl-R[Abu][Cha][Phe(4-F)]NL[Aib]TRQR[Cha]-NH2 (SMILES CC[C@H](NC(=O)[C@H](CCCNC(=N)N)NC(=O)C(C)C)C(=O)N[C@@H](CC1CCCCC1)C(=O)N[C@@H](Cc1ccc(F)cc1)C(=O)N[C@@H](CC(N)=O)C(=O)N[C@@H](CC(C)C)C(=O)NC(C)(C)C(=O)N[C@H](C(=O)N[C@@H](CCCNC(=N)N)C(=O)N[C@@H](CCC(N)=O)C(=O)N[C@@H](CCCNC(=N)N)C(=O)N[C@@H](CC1CCCCC1)C(N)=O)[C@@H](C)O) [Isobutanoyl-[Abu26, Cha27,36, Phe(4F)28, Aib31]-PYY(25-36)] |
